2 molecules from publication PMC4379015, “Chemical and Thermal Unfolding of a Global Staphylococcal Virulence Regulator with a Flexible C-Terminal End” (PLoS ONE, 2015) can be followed below.

The test system of data set [1] is rSarA (Staphylococcus aureus strain Newman). Nature of the data set: EMSA. The conditions noted are these: Gel shift buffer not stated (performed as reported earlier); rSarA kept in buffer A: 20 mM phosphate pH 8.0, 100 mM NaCl, 5% glycerol; binding temperature not …. In general terms: A gel shift assay detects complexes by their altered migration in electrophoresis.

Data set [2] deals with the molecule itself. Nature of the data set: SEC; analytical gel filtration of rSarA (20 uM) without denaturant; apparent mass from the elution volumes of monomeric marker proteins. (In gel filtration, larger molecules generally elute earlier.)

Consider hla DNA, for which the K half in data set [1] came out at 286 nM.

B1: rSarA (a C-terminally histidine-tagged SarA) (natural protein)
chain: MAITKINDCFELLSMVTYADKLKSLIKKEFSISFEEFAVLTYISENKEKEYYLKDIINHLNYKQPQVVKAVKILSQEDYFDKKRNEHDERTVLILVNAQQRKKIESLLSRVNKRITEANNEIEL
notes: the cloning attached eight additional residues at the C-terminal end of SarA; Leu 125 and Glu 126 of rSarA lie in the tag; also called recombinant SarA; not shown: His6 (eight additional residues including six histidine residues), C-terminal, kept
The term stoichiometry N denotes a count of units in the complex or per binding partner. Consider B1, for which the “stoichiometry N” value in data set [2] was found to be 2.
